Test system: LOX-IMVI cells
Test: Secreted factor rescue screen on LOX-IMVI (FIG. 23)
Type: cell-based
Description: FIG. 23 A-C.|Vemurafenib resistant and sensitive cell lines can be used to determine and anticipate paths to resistance in patients. LOX-IMVI cells were rescued by FGF1, FGF2, EGF, and HGF in the screen. A, LOX-IMVI VemR cells were re-sensitized to PLX4032 by FGFR inhibition. B, Dual resistant LOX-IMVI VemR/FGFRi (i.e., resistant to vemurafenib and FGFR inhibitor) cells were re-sensitized to PLX4032 by EGFR inhibition. C, Triple resistant LOX-IMVI VemR/FGFRi/Erlotinib cells were re-sensitized to PLX4032 by MET inhibition.

B1: EGF: secreted factor (protein, UniProt P01133 23-1207, looked up)
Pro-epidermal growth factor: PQHWSCPEGTLAGNGNSTCVGPAPFLIFSHGNSIFRIDTEGTNYEQLVVDAGVSVIMDFHYNEKRIYWVDLERQLLQRVFLNGSRQERVCNIEKNVSGMAINWINEEVIWSNQQEGIITVTDMKGNNSHILLSALKYPANVAVDPVERFIFWSSEVAGSLYRADLDGVGVKALLETSEKITAVSLDVLDKRLFWIQYNREGSNSLICSCDYDGGSVHISKHPTQHNLFAMSLFGDRIFYSTWKMKTIWIANKHTGKDMVRINLHSSFVPLGELKVVHPLAQPKAEDDTWEPEQKLCKLRKGNCSSTVCGQDLQSHLCMCAEGYALSRDRKYCEDVNECAFWNHGCTLGCKNTPGSYYCTCPVGFVLLPDGKRCHQLVSCPRNVSECSHDCVLTSEGPLCFCPEGSVLERDGKTCSGCSSPDNGGCSQLCVPLSPVSWECDCFPGYDLQLDEKSCAASGPQPFLLFANSQDIRHMHFDGTDYGTLLSQQMGMVYALDHDPVENKIYFAHTALKWIERANMDGSQRERLIEEGVDVPEGLAVDWIGRRFYWTDRGKSLIGRSDLNGKRSKIITKENISQPRGIAVHPMAKRLFWTDTGINPRIESSSLQGLGRLVIASSDLIWPSGITIDFLTDKLYWCDAKQSVIEMANLDGSKRRRLTQNDVGHPFAVAVFEDYVWFSDWAMPSVMRVNKRTGKDRVRLQGSMLKPSSLVVVHPLAKPGADPCLYQNGGCEHICKKRLGTAWCSCREGFMKASDGKTCLALDGHQLLAGGEVDLKNQVTPLDILSKTRVSEDNITESQHMLVAEIMVSDQDDCAPVGCSMYARCISEGEDATCQCLKGFAGDGKLCSDIDECEMGVPVCPPASSKCINTEGGYVCRCSEGYQGDGIHCLDIDECQLGEHSCGENASCTNTEGGYTCMCAGRLSEPGLICPDSTPPPHLREDDHHYSVRNSDSECPLSHDGYCLHDGVCMYIEALDKYACNCVVGYIGERCQYRDLKWWELRHAGHGQQQKVIVVAVCVVVLVMLLLLSLWGAHYYRTQKLLSKNPKNPYEESSRDVRSRRPADTEDGMSSCPQPWFVVIKEHQDLKNGGQPVAGEDGQAADGSMQPTSWRQEPQLCGMGTEQGCWIPVSSDKGSCPQVMERSFHMPSYGTQTLEGGVEKPHSLLSANPLWQQRALDPPHQMELTQ
modifications: Pro-epidermal growth factor
- rescue in the secreted factor screen: rescued

From patent publication US20170204187A1, “METHODS OF TREATING AND PREVENTING CANCER DRUG RESISTANCE” (Genentech, Inc., priority 2014, published 2017)
